Test results from PMC9633773, “Discovering cell-active BCL6 inhibitors: effectively combining biochemical HTS with multiple biophysical techniques, X-ray crystallography and cell-based assays” (Scientific Reports, 2022).

Molecular target: Trx-6His-HRV3C-BCL6 (Thioredoxin-6His-tagged BCL6 BTB, uncleaved) (human), P41182
Experiment: AlphaScreen or HTRF; TR-FRET competition: 1 or 10 nM Trx-6His-BCL6 BTB, 300 nM BCOR-A633, 0.5 or 1 nM anti-6His-Terbium cryptate; 25 mM Hepes pH 8, 100 mM NaCl, 0.05% Tween20, 0.5 mM TCEP, 0.05% BSA; 2 h at room temperature

Which IC50 does the source give for RSEIISTAPSSWVVPGP (modifications not checked) [unlabelled BCOR peptide (17 residue BCOR peptide)] here?
Its IC50 is 8 µM.
